The target in test [1] is mouse CD206 on peritoneal cells from 4T1 tumor-bearing mice (mouse) (UniProt Q61830). The test is described as follows: flow cytometry on peritoneal cells of 4T1 tumor mice; 10 µg/mL antibody, then FAM-UNO at 0.5 µg/mL.
The target of test [2] is T1, recombinant mouse macrophage mannose receptor rmMMR/CD206 (mouse, UniProt Q61830 20-1388, limits assumed).
T1 construct: Bought recombinant protein; also called mouse recombinant CD206; MRC1
T1 sequence (looked up): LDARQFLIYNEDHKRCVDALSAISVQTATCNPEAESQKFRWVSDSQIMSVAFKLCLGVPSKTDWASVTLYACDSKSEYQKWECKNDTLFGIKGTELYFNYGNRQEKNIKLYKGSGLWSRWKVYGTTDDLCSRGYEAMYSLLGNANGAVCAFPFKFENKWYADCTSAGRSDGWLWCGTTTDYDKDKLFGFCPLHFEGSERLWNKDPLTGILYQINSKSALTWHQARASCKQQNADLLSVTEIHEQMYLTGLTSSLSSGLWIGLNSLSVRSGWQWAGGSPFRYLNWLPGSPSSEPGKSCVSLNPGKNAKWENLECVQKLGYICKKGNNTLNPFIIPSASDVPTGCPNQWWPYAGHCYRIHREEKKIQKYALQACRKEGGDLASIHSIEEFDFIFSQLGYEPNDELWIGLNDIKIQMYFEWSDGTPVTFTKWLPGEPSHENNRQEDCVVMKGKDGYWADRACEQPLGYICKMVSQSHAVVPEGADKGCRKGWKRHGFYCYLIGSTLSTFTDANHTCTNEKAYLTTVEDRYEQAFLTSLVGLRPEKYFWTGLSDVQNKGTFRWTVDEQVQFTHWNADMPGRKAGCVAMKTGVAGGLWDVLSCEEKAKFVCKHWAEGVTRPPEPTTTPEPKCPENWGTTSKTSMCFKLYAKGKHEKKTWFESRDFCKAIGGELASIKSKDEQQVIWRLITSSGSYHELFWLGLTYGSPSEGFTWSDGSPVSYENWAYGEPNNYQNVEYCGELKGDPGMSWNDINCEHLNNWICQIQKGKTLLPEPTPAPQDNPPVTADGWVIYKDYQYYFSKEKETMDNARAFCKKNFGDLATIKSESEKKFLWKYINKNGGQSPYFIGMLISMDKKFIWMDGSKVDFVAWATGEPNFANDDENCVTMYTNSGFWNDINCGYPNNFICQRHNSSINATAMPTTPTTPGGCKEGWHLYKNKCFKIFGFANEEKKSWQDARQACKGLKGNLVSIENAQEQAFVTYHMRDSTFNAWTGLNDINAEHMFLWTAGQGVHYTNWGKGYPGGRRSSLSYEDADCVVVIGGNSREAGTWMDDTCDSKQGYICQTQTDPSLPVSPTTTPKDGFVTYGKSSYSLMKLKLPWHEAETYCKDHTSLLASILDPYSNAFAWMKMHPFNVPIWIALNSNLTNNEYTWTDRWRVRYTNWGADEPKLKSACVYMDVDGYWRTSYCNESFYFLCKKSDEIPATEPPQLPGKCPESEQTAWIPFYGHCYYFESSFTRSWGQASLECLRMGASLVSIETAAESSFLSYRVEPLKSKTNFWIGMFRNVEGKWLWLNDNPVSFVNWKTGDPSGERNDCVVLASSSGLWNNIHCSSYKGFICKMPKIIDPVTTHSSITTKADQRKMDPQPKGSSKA
Put plainly: fluorescence anisotropy, in solution, 50 nM peptide and 1 µM protein. The protocol: In all experiments, FA signal measurements were done under pseudo first-order conditions with 50 nM singly labelled FAM peptides and 1 μM proteins. […] Assays were carried out in kinetic mode in a total volume of 30 μl at 25° C. on the PHERAstar (BMG Labtech, Germany) microplate reader using an optical module with excitation and emission filters of 485 nm (slit 10 nm) and 520 nm (slit 10 nm), respectively. Dual emission detection mode allows simultaneous recording of intensities that are parallel (l) and perpendicular (1) to the plane of excitation light. Sensitivities of channels (G factor) were corrected with gain adjustment of the photomultiplier tubes (PMTs) using fluorescein as a standard. The background fluorescence (receptor and buffer components in the absence of fluorescent ligand) was subtracted independently from all intensity channels. FA signals at time t after initiation of binding reaction was calculated as parameters r(t) from the equation: […]

The next test has as its target recombinant mouse CD163 (mouse, UniProt Q2VLH6 39-1045, limits assumed). Put plainly: fluorescence anisotropy, in solution, kinetic mode.
For test [3], the target named is T2, mouse CD206 on peritoneal cells from 4T1 tumor-bearing mice (mouse, UniProt Q61830 20-1456).
T2 construct: whole, on cells; Primary cells that carry many other proteins; also called MRC1; mannose receptor
T2 sequence (looked up): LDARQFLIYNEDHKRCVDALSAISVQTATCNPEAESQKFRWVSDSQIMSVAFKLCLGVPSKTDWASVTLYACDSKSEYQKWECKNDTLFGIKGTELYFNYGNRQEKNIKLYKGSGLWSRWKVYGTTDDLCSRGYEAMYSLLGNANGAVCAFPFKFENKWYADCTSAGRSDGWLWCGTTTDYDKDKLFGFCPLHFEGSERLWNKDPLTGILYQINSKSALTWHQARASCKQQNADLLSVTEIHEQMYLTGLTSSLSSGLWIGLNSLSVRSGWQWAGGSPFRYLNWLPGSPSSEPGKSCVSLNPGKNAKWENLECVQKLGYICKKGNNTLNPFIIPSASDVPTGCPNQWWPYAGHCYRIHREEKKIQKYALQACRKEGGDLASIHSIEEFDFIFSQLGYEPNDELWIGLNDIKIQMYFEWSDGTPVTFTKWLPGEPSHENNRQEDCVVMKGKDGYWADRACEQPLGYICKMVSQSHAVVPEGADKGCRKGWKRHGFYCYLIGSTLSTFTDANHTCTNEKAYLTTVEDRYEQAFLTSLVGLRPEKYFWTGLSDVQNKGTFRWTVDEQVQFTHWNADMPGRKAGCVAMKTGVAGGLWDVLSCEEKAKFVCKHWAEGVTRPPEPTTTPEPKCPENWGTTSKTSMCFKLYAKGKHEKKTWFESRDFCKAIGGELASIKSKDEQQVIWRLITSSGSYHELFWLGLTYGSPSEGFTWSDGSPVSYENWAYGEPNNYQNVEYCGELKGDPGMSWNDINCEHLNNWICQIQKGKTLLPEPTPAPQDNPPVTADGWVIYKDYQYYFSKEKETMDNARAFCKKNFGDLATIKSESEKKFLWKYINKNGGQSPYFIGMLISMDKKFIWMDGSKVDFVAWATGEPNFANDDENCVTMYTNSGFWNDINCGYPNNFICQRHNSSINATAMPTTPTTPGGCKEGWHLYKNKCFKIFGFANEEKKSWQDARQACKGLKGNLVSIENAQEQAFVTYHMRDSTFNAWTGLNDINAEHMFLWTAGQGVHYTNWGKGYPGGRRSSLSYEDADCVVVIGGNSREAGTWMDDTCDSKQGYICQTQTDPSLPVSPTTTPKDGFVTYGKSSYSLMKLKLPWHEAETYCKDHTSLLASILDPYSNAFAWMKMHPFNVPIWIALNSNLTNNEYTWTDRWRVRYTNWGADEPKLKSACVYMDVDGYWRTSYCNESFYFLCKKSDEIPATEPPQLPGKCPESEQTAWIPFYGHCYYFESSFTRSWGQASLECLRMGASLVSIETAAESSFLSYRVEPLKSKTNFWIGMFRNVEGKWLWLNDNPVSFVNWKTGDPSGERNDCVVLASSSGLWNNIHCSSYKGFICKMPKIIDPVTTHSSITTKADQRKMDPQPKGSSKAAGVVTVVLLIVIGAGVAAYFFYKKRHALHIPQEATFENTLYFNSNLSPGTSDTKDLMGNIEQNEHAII
Put plainly: flow cytometry on peritoneal cells, legend of FIG. 4D. The protocol:
Mice were anesthetized and intraperitoneally injected with 5 mL of PBS+1% BSA, the abdomen was massaged to detach macrophages and the peritoneal fluid was collected. This procedure typically yielded 5-9×10⁶ cells. Cells were concentrated to 1 mL in the same peritoneal fluid. For FAM-peptide incubation, the peptides were incubated for 30 minutes at 4° C. For antibody incubation the cells were incubated with antibody for 1 h at 4° C. A647 Rat anti-CCR2 (Biolegend, CA, USA. Catalog number 150603) was incubated for 1 h at 4° C. at a dilution of 1/200. FAM-peptides were incubated at a concentration of 0.5 μg/mL, and Rat anti-CD206 (Bio-Rad, CA, USA. Product code MCA2235GA) was incubated at a concentration of 10 μg/mL. Binding of FAM-peptides was monitored with 488 nm channel and CCR2 labeling was assessed in the 647 nm channel using A647 Anti-CCR2 (Biolegend, CA, USA). After incubation of FAM-Peptides or antibodies, the cells were washed 3 times at 4° C. with PBS-Tby centrifugation at 250 g for 6 minutes, followed by flow cytometry analysis (Accuri, BD Biosciences, CA, USA).
The effect of a blocking anti-CD206 antibody on FAM-UNO binding to peritoneal cells isolated from 4T1 tumor mice was studied. Flow cytometry experiments were performed by incubating FAM-peptide with the cells suspended in the peritoneal fluid; this i.p. fluid also contained glutathione (FIG. 24). […]

The target of test [4] is T3, recombinant human macrophage mannose receptor rhMMR/CD206 (human, UniProt P22897 19-1383, limits assumed).
T3 construct: Bought recombinant protein; also called human recombinant CD206; hCD206
T3 sequence (looked up): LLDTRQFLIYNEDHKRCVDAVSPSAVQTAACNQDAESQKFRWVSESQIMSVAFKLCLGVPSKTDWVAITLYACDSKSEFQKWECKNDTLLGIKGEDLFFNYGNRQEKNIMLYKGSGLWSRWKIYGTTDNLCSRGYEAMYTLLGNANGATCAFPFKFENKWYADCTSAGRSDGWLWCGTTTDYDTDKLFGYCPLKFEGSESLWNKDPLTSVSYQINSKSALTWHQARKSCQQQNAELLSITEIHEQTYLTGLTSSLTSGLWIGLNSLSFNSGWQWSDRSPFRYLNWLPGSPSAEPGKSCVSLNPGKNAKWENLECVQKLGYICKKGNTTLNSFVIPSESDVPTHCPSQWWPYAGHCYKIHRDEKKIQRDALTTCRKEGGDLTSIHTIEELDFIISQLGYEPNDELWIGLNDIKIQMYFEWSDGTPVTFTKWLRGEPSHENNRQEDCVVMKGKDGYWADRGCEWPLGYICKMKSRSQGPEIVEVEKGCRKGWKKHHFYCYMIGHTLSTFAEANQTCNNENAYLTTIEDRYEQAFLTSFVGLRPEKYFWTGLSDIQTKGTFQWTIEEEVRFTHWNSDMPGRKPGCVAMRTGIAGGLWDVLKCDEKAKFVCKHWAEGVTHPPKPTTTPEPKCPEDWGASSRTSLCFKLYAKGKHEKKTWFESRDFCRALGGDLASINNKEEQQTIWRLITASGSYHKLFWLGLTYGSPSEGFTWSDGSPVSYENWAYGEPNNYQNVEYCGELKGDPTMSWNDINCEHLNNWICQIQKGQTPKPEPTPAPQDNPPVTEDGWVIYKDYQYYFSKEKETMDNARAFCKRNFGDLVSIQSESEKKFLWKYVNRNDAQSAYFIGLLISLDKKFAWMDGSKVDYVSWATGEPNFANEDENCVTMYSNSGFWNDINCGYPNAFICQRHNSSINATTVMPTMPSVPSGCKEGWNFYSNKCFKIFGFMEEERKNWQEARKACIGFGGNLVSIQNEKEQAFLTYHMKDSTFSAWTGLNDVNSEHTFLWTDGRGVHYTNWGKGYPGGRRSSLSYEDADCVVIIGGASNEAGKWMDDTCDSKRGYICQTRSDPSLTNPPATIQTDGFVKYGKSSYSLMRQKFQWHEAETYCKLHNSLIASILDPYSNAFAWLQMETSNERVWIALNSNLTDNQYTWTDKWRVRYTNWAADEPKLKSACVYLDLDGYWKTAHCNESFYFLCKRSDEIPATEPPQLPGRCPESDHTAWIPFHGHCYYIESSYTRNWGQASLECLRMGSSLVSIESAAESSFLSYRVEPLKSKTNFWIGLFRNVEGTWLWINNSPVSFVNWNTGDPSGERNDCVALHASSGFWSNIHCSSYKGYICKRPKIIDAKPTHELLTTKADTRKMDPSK
The test is described as follows: fluorescence anisotropy, in solution, kinetic mode.

Test [5] concerns the target T1, recombinant mouse macrophage mannose …. Put plainly: fluorescence anisotropy, in solution, kinetic mode.

Bridge positions count the residues as written; N and C are the ends. Ends that are not written are not given here. FAM = 5(6)-carboxyfluorescein; Ahx = NCCCCCC(=O)O

Chain of recombinant mouse CD163 (Q2VLH6 39-1045 limits assumed): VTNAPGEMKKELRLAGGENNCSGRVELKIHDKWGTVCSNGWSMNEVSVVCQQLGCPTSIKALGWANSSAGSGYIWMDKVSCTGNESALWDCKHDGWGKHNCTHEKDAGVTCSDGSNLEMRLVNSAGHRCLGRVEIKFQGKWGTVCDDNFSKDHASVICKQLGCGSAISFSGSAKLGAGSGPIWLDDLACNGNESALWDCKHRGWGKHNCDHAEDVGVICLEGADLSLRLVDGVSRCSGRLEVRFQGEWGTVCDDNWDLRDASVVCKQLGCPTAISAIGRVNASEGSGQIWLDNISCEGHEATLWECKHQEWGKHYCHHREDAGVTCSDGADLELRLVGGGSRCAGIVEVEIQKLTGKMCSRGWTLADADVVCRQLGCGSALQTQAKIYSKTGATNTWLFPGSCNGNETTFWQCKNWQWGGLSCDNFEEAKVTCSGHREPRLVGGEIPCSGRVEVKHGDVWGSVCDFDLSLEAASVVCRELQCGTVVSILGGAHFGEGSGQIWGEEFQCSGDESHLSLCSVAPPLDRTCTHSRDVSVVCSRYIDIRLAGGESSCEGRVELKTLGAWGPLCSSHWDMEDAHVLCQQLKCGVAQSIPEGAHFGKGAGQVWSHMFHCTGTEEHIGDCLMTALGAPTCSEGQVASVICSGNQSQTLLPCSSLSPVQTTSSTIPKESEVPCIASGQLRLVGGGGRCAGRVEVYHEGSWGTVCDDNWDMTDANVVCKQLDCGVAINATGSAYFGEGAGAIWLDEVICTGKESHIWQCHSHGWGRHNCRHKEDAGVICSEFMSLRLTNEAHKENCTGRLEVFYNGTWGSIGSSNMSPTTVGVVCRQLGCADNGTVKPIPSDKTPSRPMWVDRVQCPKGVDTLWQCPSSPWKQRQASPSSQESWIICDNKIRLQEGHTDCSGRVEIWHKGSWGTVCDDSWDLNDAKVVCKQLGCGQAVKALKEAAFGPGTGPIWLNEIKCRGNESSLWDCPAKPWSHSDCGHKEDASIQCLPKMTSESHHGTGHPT

In test [1], “rat anti-CD206 antibody (Bio-Rad, product code MCA2235GA)” displayed a reduction of FAM-UNO binding of 25%.
Consider {FAM-Ahx}-CSPGAK (also called linear CSPGAK) [FAM-CSPGAK], for which the binding result is on record as “binds” in test [2] and “no binding (tested: 50 nM FAM peptide, 1 µM protein)” in the test with recombinant mouse CD163.

B1: FAM-UNO (cyclic, disulfide-bridged FAM-labeled CSPGAKVRC) (peptide)
peptide: {FAM-Ahx}-CSPGAKVRC
modifications: disulfide 1-9
notes: Cyclic CX7C peptide from a phage library, used as a synthetic FAM-labeled peptide without reduction; also called FAM-labeled UNO
B1: the binding result in test [3] is listed as “binds”; in test [4], “no binding (tested: 100 nM FAM peptide, 0.4 µM protein)”.

B2: FAM-CPMTDNE (control peptide) (peptide)
peptide: {FAM-Ahx}-CPMTDNE
notes: Control peptide of the fluorescence anisotropy assay
Take B2: in test [5], the binding result was “no binding (tested: 50 nM FAM peptide, 1 µM protein)”.

These data come from patent US20200268910A1 (SANFORD BURNHAM PREBYS MEDICAL DISCOVERY INSTITUTE, published 2020).
